{"source": "patent US20120164670", "proteins": {"B1": {"name": "full-length human SIRT1 enzyme (protein)", "chain": "ADEAALALQPGGSPSAAGADREAASSPAGEPLRKRPRRDGPGLERSPGEPGGAAPEREVPAAARGCPGAAAAALWREAEAEAAAAGGEQEAQATAAAGEGDNGPGLQGPSREPPLADNLYDEDDDDEGEEEEEAAAAAIGYRDNLLFGDEIITNGFHSCESDEEDRASHASSSDWTPRPRIGPYTFVQQHLMIGTDPRTILKDLLPETIPPPELDDMTLWQIVINILSEPPKRKKRKDINTIEDAVKLLQECKKIIVLTGAGVSVSCGIPDFRSRDGIYARLAVDFPDLPDPQAMFDIEYFRKDPRPFFKFAKEIYPGQFQPSLCHKFIALSDKEGKLLRNYTQNIDTLEQVAGIQRIIQCHGSFATASCLICKYKVDCEAVRGDIFNQVVPRCPRCPADEPLAIMKPEIVFFGENLPEQFHRAMKYDKDEVDLLIVIGSSLKVRPVALIPSSIPHEVPQILINREPLPHLHFDVELLGDCDVIINELCHRLGGEYAKLCCNPVKLSEITEKPPRTQKELAYLSELPPTPLHVSEDSSSPERTSPPDSSVIVTLLDQAAKSNDDLDVSESKGCMEEKPQEVQTSRNVESIAEQMENPDLKNVGSSTGEKNERTSVAGTVRKCWPNRVAKEQISRRLDGNQYLFLPPNRYIFHGAEVYSDSEDDVLSSSSCGSNSDSGTCQSPSLEEPMEDESEIEEFYNGLEDEPDVPERAGGAGFGTDGDDQEAINEAISVKQEVTDMNYPSNKS"}}, "key": {"[1]": {"target": "DBC1, Q8N163", "sequence (Q8N163 whole entry, looked up)": "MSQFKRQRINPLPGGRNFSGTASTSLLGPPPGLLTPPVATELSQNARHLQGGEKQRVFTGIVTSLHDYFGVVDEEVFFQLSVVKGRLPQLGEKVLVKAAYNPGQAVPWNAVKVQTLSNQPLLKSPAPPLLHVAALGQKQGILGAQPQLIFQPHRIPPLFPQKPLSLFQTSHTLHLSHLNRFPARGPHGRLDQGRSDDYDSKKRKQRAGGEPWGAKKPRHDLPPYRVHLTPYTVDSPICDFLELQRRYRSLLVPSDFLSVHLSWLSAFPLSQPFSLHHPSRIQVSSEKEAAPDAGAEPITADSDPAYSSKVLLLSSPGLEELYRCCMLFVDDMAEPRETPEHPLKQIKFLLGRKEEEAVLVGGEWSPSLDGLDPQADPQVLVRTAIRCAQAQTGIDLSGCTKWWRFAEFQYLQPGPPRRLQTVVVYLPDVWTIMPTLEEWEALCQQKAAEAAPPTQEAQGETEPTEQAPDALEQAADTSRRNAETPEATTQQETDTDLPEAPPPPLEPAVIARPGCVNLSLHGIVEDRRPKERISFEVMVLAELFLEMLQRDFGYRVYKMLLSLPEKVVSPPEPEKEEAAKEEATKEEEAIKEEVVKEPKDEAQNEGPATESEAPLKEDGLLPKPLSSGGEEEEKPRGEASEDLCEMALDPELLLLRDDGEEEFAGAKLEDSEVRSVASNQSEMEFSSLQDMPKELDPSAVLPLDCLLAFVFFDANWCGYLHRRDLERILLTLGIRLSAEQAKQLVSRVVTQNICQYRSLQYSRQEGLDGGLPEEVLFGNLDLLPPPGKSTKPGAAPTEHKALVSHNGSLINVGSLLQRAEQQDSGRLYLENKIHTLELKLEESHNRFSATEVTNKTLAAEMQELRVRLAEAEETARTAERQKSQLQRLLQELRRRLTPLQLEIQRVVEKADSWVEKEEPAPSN"}, "[2]": {"target": "Fleur de Lys peptide (BIOMOL)"}, "[3]": {"target": "T1, H3K9ac substrate (TARK(ac)STG)", "T1 chain": "TARKSTG"}}}
{"protein": "B1", "values": [{"measurement": "SIRT1 activity (PNC1-OPT assay, dose titration of DBC1, H3K9-L peptide substrate)", "setting": "[1]", "result": "DBC1 concentration inversely correlates with SIRT1 activity"}, {"measurement": "Km (PNC1-OPT nicotinamide assay, SIRT1 deacetylation)", "setting": "[2]", "result": "˜130.2 uM"}, {"measurement": "Km (stated in the kit protocol for the SIRT1 deacetylation reaction)", "setting": "[3]", "result": "final concentration=50 uM (Km)"}]}
